B1: PLAGL1 (parent)
chain: EKPPSGTKEKKHQCDHCERCFYTR
B2: S100A14 (parent)
chain: KIANLGSCNDSKLEFRSFWELIGE

Variants of: B1
Assay: protein stability index of a GFP-peptide fusion (GPS, HEK-293T) (PSI 1-6); higher = more stable
Details: c terminus: a fixed tail appended
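Also: lentivirally expressed fusions sorted by FACS into six bins by GFP to DsRed ratio, PSI derived from sequencing read proportions per bin multiplied by bin number.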

Row | Variant | protein stability index
1 | K8N | 3.77
2 | K8W | 3.35
3 | K8G | 3.29
4 | K8V | 3.9
5 | K8H | 3.88
6 | K8T | 3.48
7 | K8Q | 4.78
8 | K8P | 4.25
9 | K8Y | 3.47
10 | K8R | 3.48
11 | K8M | 4.27
12 | K8D | 4.33
13 | K8E | 4.4
14 | K8S | 3.66
15 | K8C | 4.24
16 | K8I | 3.1
17 | K8A | 3.37
18 | K8F | 2.9
19 | K8L | 3.04
20 | H16I | 2.76
21 | H16V | 3.08
22 | H16M | 3.66
23 | H16E | 4.17
24 | H16F | 3.5
25 | H16T | 3.66

Row | Variant | protein stability index
26 | H16R | 3.49
27 | H16Y | 2.59
28 | H16W | 2.9
29 | H16C | 2.52
30 | H16G | 4.67
31 | H16L | 3.51
32 | H16S | 4.13
33 | H16N | 4.72
34 | H16Q | 3.82
35 | H16D | 4.02
36 | H16P | 3.94
37 | H16A | 4.15
38 | H16K | 4.02
39 | G6K | 3.52
40 | G6C | 4.57
41 | G6A | 3.32
42 | G6D | 3.88
43 | G6M | 3.39
44 | G6R | 3.07
45 | G6E | 4.09
46 | G6P | 4.37
47 | G6H | 3.68
48 | G6V | 4
49 | G6Q | 3.16
50 | G6I | 3.17

Row | Variant | protein stability index
51 | G6T | 4.61
52 | G6W | 3.13
53 | G6L | 3.92
54 | G6S | 3.27
55 | G6Y | 2.92
56 | G6F | 3.79
57 | G6N | 3.36
58 | K11I | 3.71
59 | K11E | 4.6
60 | K11H | 4.06
61 | K11Y | 3.81
62 | K11M | 4.04
63 | K11P | 3.59
64 | K11R | 3.71
65 | K11G | 4.29
66 | K11L | 3.97
67 | K11V | 3.86
68 | K11F | 3.67
69 | K11A | 3.73
70 | K11N | 3.63
71 | K11S | 3.79
72 | K11T | 3.84
73 | K11D | 4.99
74 | K11W | 4.32
75 | K11Q | 4.28

Row | Variant | protein stability index
76 | C17E | 3.69
77 | C17G | 3.43
78 | C17K | 4.07
79 | C17I | 3.49
80 | C17M | 3.63
81 | C17D | 3.97
82 | C17F | 3.4
83 | C17N | 3.76
84 | C17H | 3.67
85 | C17A | 3.71
86 | C17L | 4
87 | E9T | 3.51
88 | E9F | 3.26
89 | E9W | 3.08
90 | E9I | 3.27
91 | E9R | 2.52
92 | E9D | 3.96
93 | E9C | 4.63
94 | E9V | 3.37
95 | E9Y | 2.6
96 | E9P | 3.52
97 | E9H | 3.37
98 | E9K | 2.9
99 | E9A | 3.67
100 | E9L | 3

Row | Variant | protein stability index
101 | E9Q | 3.77
102 | E9M | 2.85
103 | E9N | 3.25
104 | E9G | 3.75
105 | E9S | 3.32
106 | K2S | 3.95
107 | K2F | 3.44
108 | K2N | 4.05
109 | K2W | 3.67
110 | K2E | 3.9
111 | K2C | 3.62
112 | K2R | 3.27
113 | K2T | 3.52
114 | K2M | 2.93
115 | K2V | 3.86
116 | K2Q | 4.12
117 | K2H | 3.65
118 | K2A | 3.94
119 | K2I | 3.72
120 | K2Y | 3.17
121 | K2G | 3.44
122 | K2D | 4.26
123 | K2P | 4.08
124 | K2L | 3.32
125 | P4I | 3.57

Row | Variant | protein stability index
126 | P4E | 3.88
127 | P4A | 3.79
128 | P4G | 3.99
129 | P4T | 3.44
130 | P4R | 4.31
131 | P4W | 2.96
132 | P4M | 3.45
133 | P4Y | 3.41
134 | P4N | 3.58
135 | P4F | 3.44
136 | P4L | 3.28
137 | P4V | 3.19
138 | P4K | 3.53
139 | P4S | 3.99
140 | P4C | 3.74
141 | P4Q | 3.48
142 | P4H | 3.56
143 | P4D | 4.31
144 | E1H | 3.54
145 | E1I | 2.82
146 | E1C | 3.21
147 | E1S | 3.11
148 | E1Y | 3.04
149 | E1N | 3.59
150 | E1G | 3.6

Row | Variant | protein stability index
151 | E1K | 2.98
152 | E1V | 3.57
153 | E1M | 4.15
154 | E1Q | 3.87
155 | E1L | 3.62
156 | E1W | 3.35
157 | E1P | 3.22
158 | E1D | 3.99
159 | E1F | 2.75
160 | E1T | 3.36
161 | E1R | 3.02
162 | E1A | 3.43
163 | Q13H | 3.28
164 | Q13G | 2.34
165 | Q13N | 3.74
166 | Q13R | 2.77
167 | Q13L | 3.26
168 | Q13E | 4.31
169 | Q13W | 2.8
170 | Q13S | 3.25
171 | Q13A | 3.4
172 | Q13F | 3.2
173 | Q13D | 4.33
174 | Q13M | 3.55
175 | Q13K | 3.67

Row | Variant | protein stability index
176 | Q13T | 3.29
177 | Q13P | 2.52
178 | Q13V | 3.17
179 | Q13I | 3.21
180 | Q13Y | 2.73
181 | Q13C | 3.19
182 | C14N | 3.71
183 | C14S | 4.02
184 | C14V | 4.55
185 | C14Y | 3.56
186 | C14H | 3.57
187 | C14D | 4.14
188 | C14K | 4.08
189 | C14M | 4.11
190 | C14A | 3.97
191 | C14F | 3.81
192 | C14L | 4.19
193 | C14W | 3.4
194 | C14P | 4.03
195 | C14T | 3.8
196 | C14E | 4.84
197 | C14G | 3.96
198 | C14I | 3.73
199 | C14Q | 4.06
200 | C14R | 3.97

Row | Variant | protein stability index
201 | H12K | 3.55
202 | H12V | 1.99
203 | H12I | 2.6
204 | H12W | 1.89
205 | H12G | 2.42
206 | H12Q | 3.23
207 | H12S | 2.88
208 | H12N | 2.52
209 | H12A | 2.44
210 | H12M | 2.28
211 | H12C | 4.59
212 | H12T | 3.24
213 | H12R | 2.17
214 | H12Y | 2.15
215 | H12L | 2.55
216 | H12F | 2.39
217 | H12D | 3.09
218 | H12P | 2.2
219 | H12E | 3.04
220 | T7V | 4.06
221 | T7Y | 3.27
222 | T7F | 3.91
223 | T7W | 3.17
224 | T7A | 3.44
225 | T7G | 3.69

Row | Variant | protein stability index
226 | T7N | 3.6
227 | T7H | 3.85
228 | T7R | 3.44
229 | T7I | 4.11
230 | T7K | 3.28
231 | T7L | 3.67
232 | T7Q | 3.82
233 | T7D | 3.77
234 | T7S | 3.54
235 | T7M | 3.56
236 | T7E | 3.79
237 | T7C | 4.29
238 | T7P | 3.74
239 | K10P | 4.16
240 | K10L | 4.04
241 | K10F | 3.42
242 | K10A | 3.87
243 | K10C | 4.3
244 | K10Y | 3.81
245 | K10W | 3.55
246 | K10S | 3.96
247 | K10E | 4.42
248 | K10D | 4.05
249 | K10G | 3.91
250 | K10N | 3.76

Row | Variant | protein stability index
251 | K10T | 3.78
252 | K10R | 3.43
253 | K10V | 3.9
254 | K10I | 3.77
255 | K10H | 4.05
256 | K10Q | 3.53
257 | K10M | 3.76
258 | S5W | 3.1
259 | S5E | 3.72
260 | S5V | 3.83
261 | S5Y | 3.57
262 | S5T | 3.34
263 | S5F | 3.19
264 | S5G | 3.53
265 | S5L | 3.75
266 | S5C | 3.72
267 | S5K | 3.88
268 | S5D | 4.16
269 | S5R | 3.29
270 | S5A | 3.17
271 | S5N | 3.79
272 | S5Q | 3.42
273 | S5P | 3.54
274 | S5H | 3.83
275 | S5I | 3.97

Row | Variant | protein stability index
276 | S5M | 3.48
277 | P3C | 3.98
278 | P3N | 3.94
279 | P3I | 3.58
280 | P3R | 3.75
281 | P3D | 4.19
282 | P3K | 3.6
283 | P3G | 3.63
284 | P3Y | 3.5
285 | P3H | 3.33
286 | P3E | 3.83
287 | P3M | 3.41
288 | P3L | 3.32
289 | P3Q | 3.8
290 | P3F | 3.54
291 | P3T | 3.68
292 | P3A | 4.29
293 | P3S | 3.78
294 | P3V | 3.97
295 | P3W | 3.13
296 | D15T | 3.37
297 | D15I | 2.55
298 | D15W | 3.15
299 | D15Y | 2.97
300 | D15A | 3.75

Row | Variant | protein stability index
301 | D15Q | 2.7
302 | D15P | 2.25
303 | D15S | 3.29
304 | D15R | 2.2
305 | D15E | 3.18
306 | D15K | 3.33
307 | D15V | 2.68
308 | D15N | 3.23
309 | D15F | 2.79
310 | D15L | 2.91
311 | D15M | 2.63
312 | D15H | 2.9
313 | D15G | 4.38

Variants of: B2
Assay: as above
Details: c terminus: a fixed tail appended

Row | Variant | protein stability index
314 | E24H | 2.8
315 | E24A | 2.15
316 | E24C | 1.53
317 | E24S | 1.78
318 | E24W | 2.1
319 | E24R | 1.37
320 | E24I | 2.86
321 | E24K | 2.06
322 | E24N | 2.17
323 | E24F | 1.88
324 | E24L | 1.05
325 | E24T | 1.9
326 | E24G | 1.36
327 | E24P | 1.7
328 | E24M | 2.27
329 | E24Q | 2.11
330 | E24D | 2.15
331 | E24Y | 1.84
332 | G23V | 2.18
333 | G23Y | 1.75
334 | G23W | 2.66

Reference: the supplement of paper PMC10567573
